Assay results as given in the domain aggregation screens of Martell et al. (2025).

Experiment: soluble fraction after stress (log2 fold change); higher = more stays soluble; pooled small domains, quantitative proteomics
Settings: stress: pH 4
How it was run: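 Values are log2 fold changes, and higher ones mean more of the domain stayed soluble. Each fold change reflects the soluble amount of a domain after acid stress and is taken as a measure of aggregation propensity. The stress was pH 4, applied to pooled custom libraries of small protein domains analysed by high-throughput quantitative proteomics.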

| Sequence | soluble fraction (log2) |
| --- | --- |
| HMLTEREQDTLNFIRQYIDEQGRSPLVSEIAKGLGIKSQGTTHRYIQALVDAGLLERHVGRTRGLHLT | -0.352 |
| HMELLTNPLTGREVEVLTLMALGQTNHEIARQLYLATGTVKAHTSSIYRKLDVANRTEAVARARQLGIL | -0.448 |
| HMTSLQDLLEELRVIRETLTGSQVLSDMQLFSQLRNLGDIKAALTRMQDNPAAARMVGEVDKLLETMFAS | -1.56 |
| HMAATGPLTPREAEIARLAAGHLSNRQIAEQLVVSERTVENHLYRIFIKLAVTGRDDLAAALAATEQ | -1.17 |
| HMNDPNAPITENQLKAIHVLLDKLKVDDNLKHAYIADVLQLDNEPETLKTLTKAQGSMAIERMQLLKDN | -0.42 |
| HMSKKLLVLQTSDDAKAKDVLSQNGYQLDDGDKLSIIETEQTKMADVIKLLSDNAIDIEDVQHVH | -0.116 |
| HMNEKGTNSTINEITRISKPGRRVYVGSAEIPKVKSGRGLVLISTSKGVMTGAEAAKAKLGGELLLKV | 0.129 |
| HMEAGTEYVERAADYIRSHFQEDLTVSKLALYVGLNRSYLTTVFQNTLHVSPQQFLMRFRMERAAQLLD | -0.302 |
| HMTGIQLNDRERAILQHLSDGLTTKAIAERIFLREDTVKWYRKNLLARFEQPIVAALVKWAVLEGLV | 0.409 |
| HMNSKMTYSELVTNITNKEVESIKISSTGSTASVKLKNSKSEKEVNIPSLDSFMSYTEEYLKTGDFTLDEE | -0.824 |
| HMAPETALQILEQIQINPKVTMTDLANLTGYSRRWVAQTMKQLQELNVIKRVGSTKTGYWEIIA | -0.142 |
| HMTRLDLQNAFRVLPPEIQPAAVLFFLQERKQREIAKILGIGLPLVKYRIRKARELLAQFLRKEA | -0.073 |
| HMGRDWKTDLLNLATARGWGDVSYEVTGEGPDHARVYTAVAIVANQKTGTGVGPSKKEAERLAAEQAYRML | 0.132 |
| HMSIQMPDLSITPVTDAKKKIESLQLQYKEVGEYNDSVIAGYVIRTEPASGSYLNEDEEVIIYVSKG | -0.525 |
| HMTAFEPYLVKVMASVLNIRKGPGTSYAITGQIKDKGTYTIVAESGSWGKLKSGAGWISLSYTSKAGKA | -0.591 |
| HMFEYDEIMEQSVPKIAWGSLLTIMKKASSHKEMLWYINETYKNGWSRSMVLNQIAMASYERSLIE | -0.918 |
| HMQVDENNINKRIDKYLSENTEYSRSTIQKMIDNGNITVNSKPTKSSYKLELNDIITIDNNFKE | -0.0731 |
| HMRPDSFEAGEAEAGSRLDRLLAARLGIPRNQVQQWIGGGRVTVDAEPVRASLVVRAGMRIAWDPPPPP | 0.0905 |
| HMIEIKNLSFSYGKKKQSVFNDFSLTLDKGSVYGLLGKNGTGKSTLLYLMTGLLRPQAGQVLYKGVDVS | 0.159 |
| HMDYKAELDNIIRDHLDMEGPLLPVLHAVMARFSYIPKDAIPIIARKLNLSSAEVSGVISFYHDFKKEK | -0.165 |
| HMARRTPPPTVSELNALLRVAAPHIQRVILLGIYTGARIGPSELFSLKWDDVDLTRGVIGIRL | -0.39 |
| HMTVKKLTINEDNSGRRIDNYLLSIFNSLPRSKIYNIIRKGEVRVNSSRIKPNYRLEQGDLVRIPPNLEFT | 0.0853 |
| HMTDEYYSYIGKTGTTITVLRPAGIAEVEGERLNVVSEGEFIRKGAAILVKEVEGARILVEEVN | 0.349 |
| HMVTDTGAIEKVIDEVIAANPKQVQEIADQRAAGHEKPKTLGWLVGQIMKASGGKVNPAAVNEILLKKLG | 0.00199 |
| HMEIEYFDDEELDAYKGRKSDSYTDEEAAQFAEVLYTMRPSEVKDWTASLTLRGISMPDQIKDEAIMLME | -0.984 |
| HMQRDELRYDQFLTALQNKEFTQLNVRFDDYTYLVTGTFQSGRPFSTRGPVSEEFIRLIESSGVQVTWLPM | -1.28 |

| Sequence | soluble fraction (log2) |
| --- | --- |
| HMTSKIIIGDSYSKINKLLGEPENMKKRKFLDNEYLMVLYSINKKNYRLYFKDNILFELEDI | -0.582 |
| HMFGGIEFGWSQLPDGRVEYIIQLDDQAIAALKNGRSLTSSLPPEVQNADRIRIQYGAGPVEKGLLLQ | -0.0928 |
| HMPETYVVFSKDGYANLRRGTTINSEILDVLDNGEYVTKLDEVGEWYRVEYADFDGGYIHKSQLKNI | -1.58 |
| HMDEDLQEALRKLNPIQANERKLLLKMLEQHRWNVSSVAKAFDVSRNTLYRRLHKLHIPLSNPSE | 0.172 |
| HMVSVLGRRIKELRLQNSMTQMQLAKKLGYKGNSLVAGWELGKNYPSVSSIKRLSEIFDTDLMKYVG | 0.22 |
| HMIYAEDFVGRQGTANTILRPSGRIEIEGEVYDAYTRGEYVEAGERVVVISQEGSTLKVRVV | -1.36 |
| HMSPIKAGDLVKITGTKYYRGQTIPSWVKAKNWFVHSVSGDRAVINKSEDGKNAIMSPVKVSNLALVT | 0.0492 |
| HMNAKKSTLQLDLLKQLLEGNKISLKDFSLSNEISIRTAQRYIEDLLEIFEKNIVKEGDFYSFIS | -1.34 |
| HMPDYAFEGVVIKLTHRDYDRWKAGFPDVDLPPYLTARDAWLSEQTPADRKNWFVSTATDLRNFQKREAI | -0.362 |
| HMGKFMVQVGAFSRINGAEITRTKYDNLGTHKAIIKNLDGMNRVFLTGFLSEDEARDFIASSNLKGAFIIR | -0.0731 |
| HMRQSQEVSGGERYRRLTAYLDTHPFITRKEYSGITGLLKNKALNDLNLLVNKGYLEAMGRGSHKVYVRPM | 0.321 |
| HMYIDNVTIYDVGFNERIVHALERAGVKNLYDLSQMNFYQLQRIRNLGASSLEKVINRIHSYGILLKNES | -0.761 |
| HMKNEQESIAQKLYEAALKNDFVTIQEIQSGGYRLRNDDLTHMRESGVQSNTLIAIQKIFGL | -0.578 |
| HMEIEIPEELQNKFAEIPELKTAFESLTPGRQRAYVLYFSQPKQSKTREARIEKYIPHILDGKGMN | 0.0591 |
| HMKNNAIAPDQVVSLLKNEVNYNDDGRIEILDNNKNIRYNSKGELLTIEERVNEFLDANPHFRK | -0.0472 |
| HMKDGMRVYITYHDSEEEPEKPIGDGTTKGWHTNSTASVVWISQKVAESADLGIWGDPIRIKGEA | -0.217 |
| HMENVLFVNVLSMTVRELAEMMKIPVNKIIQDSFSKGIMMNPNQRLEYDNFAELAKKYGITVKI | -0.691 |
| HMPDRQKDIQNWQQIAETLLNMLDKYVAALETGKTGLAEAYKAIFAETLRRLDDRLDPEQFLP | -1.3 |
| HMTVPDVKGMGARDAVFLLETLGFKVRINGIGQVYEQSIDPGKSYSKGEFISLRL | -0.81 |
| HMDEKVTIPSVSGLLLSEAKTKLVDAGLTVETVYDDESKEAKDTVLSQSPLQYGKVDKGTVVTLTVSSGKG | 0.417 |
| HMESMIGSLRGRLLELFGDGEVLIEVGGVGYRVIVTPTTTVRLGDVGGDVFVHVHHHIREADQTLYGF | -0.722 |
| HMINDPSALGQRAFVDELLWMAGYVPEKIEIYQTLPNNSRVYRVKLDSVNGGFIFIRWDKKKKEHYV | -0.444 |
| HMDSDMGQQLKTLLTVGTFMSSKELKAIAQQLGLKKPTDLKEWVELESGTQRIEGKPTKGYWIKMNDINN | -0.288 |
| HMGMYFTEMRKNEGLIALNGVAESNKRVSDLMDNLKDSSSFDAADIKAVKSGSGDASSLMDFELLVT | -0.452 |
| HMRLLGEPLAGRLKKDVPVVTGRSTESKAIAQFFELRWSHLPDPEARTISVASGRIDFMDVGATRFSLR | 0.124 |
| HMAMNITQRHQEILAVIKQEKHITVSEISKLLGVSEVTIRKDFNYLEEKNLIYRHHGGASLNN | -0.0786 |

| Sequence | soluble fraction (log2) |
| --- | --- |
| HMAIWAVFYKNEPFNLKSFNSLTSYPGPKYKKTSFSNPGHALNLAKKLNLTFGTEDFQVVKLTQGTIV | 0.00875 |
| HMGGVEWLTHPIGPRDSLQVLARAGLEARPTSDGDYEIYGQERWPQRDQARLMGWLRRFGQWVWQALYDK | -0.386 |
| HMVDALYGQGARVMRDFSEGSGIVKLDNGETWTGRLSPAASGASLYVGDRVIVTRIDGAIAEVTPP | -0.446 |
| HMKYEFEFPYWSNKEAKHMIVTINYPNGTRATASIQDNDGSNPDYKRIMEEFGEEQIDANTEEGLKRR | -0.816 |
| HMPFNLKSLADRLSHVFPGLVKMRDDIGAIIVMDKIKVTEHGVTEGGGLAADRVRAVYNEFIKEY | 0.334 |
| HMQSTVSTHQKTLALDTAQSGIPVFPVSSTHKRPLTDHGYKDATADADAVRKIWQQFPSAFV | 0.22 |
| HMKRTRLEEAMDWLREQLNDGPVAYATLKDEAPKAEITLSTLRAAGEALRVDKQKKGVQWGGWTWSLPR | 0.404 |
| HMHEIVDTVLQVKQSVEADPLIAPALKNKEIVFQLNAKGVFQFKNAVIQVASALGISKNTVYMHLRNNK | -0.14 |
| HMGMTNRIKELRKAKGYRQEDLAAALGVSRQTIIAVENNKYNPTLELAMKLARHLQTTVEELFQL | -0.885 |
| HMKYEGEDEYYASLVTEKIAAIGTVTEESEDAIKEARAAYDALTSAQKKLVTNYDVLDEAEK | 0.302 |
| HMGARHPLPYPFARAHGLLLEADGERSTLWASTNVSPAALSEVMRKYAVDVIEEEPPETLSQRIAAAYAA | -0.763 |
| HMEDPKLAQLTEQERKILDLIADGLTNRQIAEKMFLAEKTVKNYVSTILAKMGMSNRSEAAAYVARLEAG | -0.292 |
| HMVSGSPTVDILMQRGLEYQQQENLEAARDAFDRAINLKPDYAEAWNRRAVLFFNEGKYDEAIADLETAIT | -0.0941 |
| HMSDRESYGRYRNVSLTLSEYESLKNEYPLYADKYIERLSEYMETAGKHYNNHYATILSWLSKDIK | -0.8 |
| HMRGVDRPLTLPRHWRRNAGRLVKVTLANGSAVTGRVLDPGEERVTLEVSGERHEVAYADVKKALVQVEF | -0.32 |
| HMQTLQNNLKQIRSRVGLTQGELASRAGISRQAYSTLESGNANPSTEVSLRLAEALNERIESLFFLANQ | -0.846 |
| HMNADAIIGRMGKVTEPITPDGYGRVEIDGDSWKATAVGGVAIAEGTRVSVVSLDSIIITVKTV | -0.117 |
| HMETYEFNITDKEQTGMRVDKLLPELNSDWSRNQIQDWIKAGLVVANDKVVKSNYKVKLNDHIVVTEKEV | -0.2 |
| HMIAGHLQEKKGFFYIVLSYPDAAGKRKTKWFPTKLSVKGNKKKAEVMLMDARKTFVPPETPL | 0.207 |
| HMQQISDPQVLRPMAEEVLHQSQKVVQDYKGGNKNAFHALVGQMMKKTQGKGNPQVIGQVLSELLDE | -0.284 |
| HMDSRVRHAVLTTLLGKRIVDDLVEKGELPGTPLVLATAPGLDRDLEQLIAQRVVTALLTTV | 0.192 |
| HMNVVSIEHIRTHLQNHLSLIGRSIEESFNEAKVIAFVASLFLTHRGYASVSQDMGTNGEIYLQDLW | -0.0149 |
| HMYMKMNDRIRSRRKELKMTQSVLAKLVGVNRVTITGWESGDYKPGGENLQALAAALEKTPQWLLDGKD | ≥ 0.43 |
| HMKTITLDEAQEIALAEVDGKVTRAVEETDDGRSYYEFDIITNDQKHELEVDASSGKITKNEIDEDYVPS | -0.0471 |
